In experiment [1] the target is T1, human FcγRI expressed on CHO cells (human, UniProt P12314 16-374).
T1 construct: whole, on cells
The experiment in a line: FACS, CHO cells expressing FcγRI. An outline of the steps:
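Trypsin-harvested CHO cells overexpressing each FcγR were incubated 2 h at 4 °C with IgG mutants in 3% BSA/PBS. Bound IgG was detected with PE-labeled anti-human IgG (2 h, 4 °C), then cells were fixed in 2% PFA and analysed by flow cytometry.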
For orientation: In flow cytometry, cells or beads pass a laser one at a time.

Experiment [2] deals with T2, human FcγRIIB expressed on CHO cells (human, UniProt P31994 43-310).
T2 construct: whole, on cells; also called CD32B
T2 sequence (looked up): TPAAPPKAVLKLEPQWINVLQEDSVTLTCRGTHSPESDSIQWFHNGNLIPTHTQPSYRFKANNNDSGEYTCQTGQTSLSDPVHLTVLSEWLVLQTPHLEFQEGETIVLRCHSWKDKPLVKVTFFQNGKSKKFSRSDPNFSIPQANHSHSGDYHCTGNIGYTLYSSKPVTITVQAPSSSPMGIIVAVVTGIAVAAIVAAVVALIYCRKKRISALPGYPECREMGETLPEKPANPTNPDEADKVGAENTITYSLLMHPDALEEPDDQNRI
The experiment can be described thus: FACS, CHO cells expressing FcγRIIB. The procedure:
For FACS analysis of the IgG mutants' binding to different FcγRs, FcγR overexpressing CHO cells were harvested using trypsin-EDTA and were suspended in cold staining buffer (3% BSA in PBS). Test IgG mutants, which were diluted in staining buffer, were added into the cells. The mixture was incubated 4° C. for 2 hours, and then washed twice with cold staining buffer and re-suspended in PE-labeled anti-human IgG followed by incubation at 4° C. for 2 hours. The mixture was washed twice with staining buffer and re-suspended in 2% PFA in PBS for FACS.

Experiment [3] deals with T3, human FcγRIIA(R131) expressed on CHO cells (human, UniProt P12318 34-317).
T3 construct: whole, on cells
T3 sequence (looked up): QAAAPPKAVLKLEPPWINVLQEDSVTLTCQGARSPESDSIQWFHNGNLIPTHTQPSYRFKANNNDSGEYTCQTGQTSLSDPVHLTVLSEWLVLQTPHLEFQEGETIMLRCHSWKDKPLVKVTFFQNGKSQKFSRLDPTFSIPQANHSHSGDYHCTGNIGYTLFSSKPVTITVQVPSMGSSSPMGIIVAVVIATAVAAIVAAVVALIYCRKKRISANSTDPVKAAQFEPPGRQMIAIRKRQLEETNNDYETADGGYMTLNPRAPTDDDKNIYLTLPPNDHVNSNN
The experiment in a line: FACS, CHO cells expressing FcγRIIA(R131).

For experiment [4], the target named is T4, human FcγRIIA(H131) expressed on CHO cells (human, UniProt P12318 34-317).
T4 construct: whole, on cells
T4 sequence (looked up): T3 sequence (looked up) with R134H
The experiment can be described thus: FACS, CHO cells expressing FcγRIIA(H131).

Experiment [5] has as its target T5, human FcγRIIC expressed on CHO cells (human, UniProt P31995 43-323).
T5 construct: whole, on cells
T5 sequence (looked up): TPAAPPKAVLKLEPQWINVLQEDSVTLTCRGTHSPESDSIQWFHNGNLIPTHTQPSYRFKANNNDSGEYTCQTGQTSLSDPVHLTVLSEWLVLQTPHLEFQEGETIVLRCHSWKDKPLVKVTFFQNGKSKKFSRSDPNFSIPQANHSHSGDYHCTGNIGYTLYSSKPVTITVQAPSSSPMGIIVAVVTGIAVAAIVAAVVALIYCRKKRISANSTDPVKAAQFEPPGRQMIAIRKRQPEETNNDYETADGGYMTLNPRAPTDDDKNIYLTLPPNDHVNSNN
The experiment can be described thus: FACS, CHO cells expressing FcγRIIC.

Experiment [6] concerns the target T6, human FcRIIIA-F158 protein (MednaBio, E1036) (human, UniProt P08637 17-208).
T6 construct: Bought; also called FcγRIIIA(F)
The experiment in a line: BLI. (In BLI a coated tip is dipped into the sample, and binding shifts an interference pattern.)

Experiment [7] has as its target T7, human FcRIIB/C protein (MednaBio, E1034) (human, UniProt P31994 43-217, limits assumed).
T7 construct: Bought as FcRIIB/C; also called FcγRIIB; CD32B
T7 sequence (looked up): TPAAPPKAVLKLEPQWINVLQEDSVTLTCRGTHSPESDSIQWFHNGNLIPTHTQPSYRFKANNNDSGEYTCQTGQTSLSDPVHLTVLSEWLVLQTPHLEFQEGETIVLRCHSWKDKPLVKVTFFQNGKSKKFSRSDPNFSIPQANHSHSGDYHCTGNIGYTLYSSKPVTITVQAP
The experiment in a line: BLI.

In experiment [8] the target is T8, human FcRI protein (MednaBio, E1031) (human, UniProt P12314 16-288, limits assumed).
T8 construct: Bought; loaded on anti-penta-HIS biosensors; also called FcγRI
T8 sequence (P12314 16-288 limits assumed): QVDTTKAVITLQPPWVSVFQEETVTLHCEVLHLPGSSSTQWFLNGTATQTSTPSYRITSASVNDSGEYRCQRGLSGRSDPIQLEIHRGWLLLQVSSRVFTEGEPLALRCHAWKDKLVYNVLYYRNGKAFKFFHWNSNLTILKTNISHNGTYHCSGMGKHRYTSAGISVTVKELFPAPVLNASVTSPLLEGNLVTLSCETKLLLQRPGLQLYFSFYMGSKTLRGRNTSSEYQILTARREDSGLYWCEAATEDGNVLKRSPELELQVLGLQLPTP
The experiment in a line: BLI.

Experiment [9] addresses T9, human FcRn protein (MednaBio, E1032) (human, UniProt P55899 24-297; P61769 21-119).
T9 construct: Bought; assays at pH 6
The experiment can be described thus: BLI.

For experiment [10], the target named is T10, human FcRIIA protein (MednaBio, E1033) (human, UniProt P12318 34-218, limits assumed).
T10 construct: Bought; also called FcγRIIA
T10 sequence (looked up): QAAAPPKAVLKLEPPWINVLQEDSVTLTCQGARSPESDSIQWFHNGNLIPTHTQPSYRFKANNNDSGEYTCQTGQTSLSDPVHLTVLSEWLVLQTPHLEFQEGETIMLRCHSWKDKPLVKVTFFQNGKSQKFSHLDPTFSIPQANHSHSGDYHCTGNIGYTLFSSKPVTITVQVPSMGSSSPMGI
The experiment can be described thus: BLI.

Experiment [11] has as its target T11, human FcRIIIA-V158 protein (MednaBio, E1035) (human, UniProt P08637 17-208).
T11 construct: Bought; also called FcγRIIIA(V); FcgRIIIA(V)
The experiment can be described thus: BLI.

Numbering of substitutions follows the chain as printed.

T9 sequence (P55899 24-297 limits assumed, form in doubt, chain 1 of 2): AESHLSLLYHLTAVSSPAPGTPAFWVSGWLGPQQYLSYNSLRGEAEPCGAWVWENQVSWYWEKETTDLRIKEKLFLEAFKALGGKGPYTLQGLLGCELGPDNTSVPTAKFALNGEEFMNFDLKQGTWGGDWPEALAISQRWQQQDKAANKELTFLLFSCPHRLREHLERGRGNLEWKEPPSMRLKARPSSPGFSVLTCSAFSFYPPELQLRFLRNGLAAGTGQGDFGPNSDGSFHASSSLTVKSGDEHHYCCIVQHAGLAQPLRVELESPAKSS
T9 sequence (P61769 21-119 limits assumed, form in doubt, chain 2 of 2): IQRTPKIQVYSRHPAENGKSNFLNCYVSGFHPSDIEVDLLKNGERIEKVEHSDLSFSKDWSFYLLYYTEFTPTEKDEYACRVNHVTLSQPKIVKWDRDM
T1 sequence (P12314 16-374): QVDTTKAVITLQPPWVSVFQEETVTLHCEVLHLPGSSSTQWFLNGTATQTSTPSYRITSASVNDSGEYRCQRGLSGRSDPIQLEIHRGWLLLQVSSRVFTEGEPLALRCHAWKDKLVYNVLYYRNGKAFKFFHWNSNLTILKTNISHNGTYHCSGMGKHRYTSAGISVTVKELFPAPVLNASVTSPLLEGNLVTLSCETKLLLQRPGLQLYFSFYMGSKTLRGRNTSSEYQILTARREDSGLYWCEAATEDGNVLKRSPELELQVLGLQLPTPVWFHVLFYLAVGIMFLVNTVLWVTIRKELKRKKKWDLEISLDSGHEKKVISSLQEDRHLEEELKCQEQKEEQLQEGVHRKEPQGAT
T6 sequence (P08637 17-208 limits assumed): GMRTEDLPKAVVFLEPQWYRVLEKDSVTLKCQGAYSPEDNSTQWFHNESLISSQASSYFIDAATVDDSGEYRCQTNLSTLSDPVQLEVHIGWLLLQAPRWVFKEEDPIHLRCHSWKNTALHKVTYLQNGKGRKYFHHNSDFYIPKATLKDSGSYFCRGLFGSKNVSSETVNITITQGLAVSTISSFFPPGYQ
T11 sequence (P08637 17-208 F176V): as the sequence (P08637 17-208 limits assumed) above, with F160V counted along it

B1: anti-CD137 IgG2 with Fc variant G2m1 (antibody)
heavy: EVQLVQSGAEVKKPGESLRISCKGSGYSFSTYWISWVRQMPGKGLEWMGKIYPGDSYTNYSPSFQGQVTISADKSISTAYLQWSSLKASDTAMYYCARGYGIFDYWGQGTLVTVSSASTKGPSVFPLAPCSRSTSESTAALGCLVKDYFPEPVTVSWNSGALTSGVHTFPAVLQSSGLYSLSSVVTVPSSNFGTQTYTCNVDHKPSNTKVDKTVERKCCVECPPCPAPPVASVFLFPPKPKDTLMISRTPEVTCVVVDVSHEDPEVQFNWYVDGVEVHNAKTKPREEQFNSTFRVVSVLTVVHQDWLNGKEYKCKVSNKGLPAPIEKTISKTKGQPREPQVYTLPPSREEMTKNQVSLTCLVKGFYPSDIAVEWESNGQPENNYKTTPPMLDSDGSFFLYSKLTVDKSRWQQGNVFSCSVMHEALHNHYTQKSLSLSPGK
light: SYELTQPPSVSVSPGQTASITCSGDNIGDQYAHWYQQKPGQSPVLVIYQDKNRPSGIPERFSGSNSGNTATLTISGTQAMDEADYYCATYTGFGSLAVFGGGTKLTVLGQPKAAPSVTLFPPSSEELQANKATLVCLISDFYPGAVTVAWKADSSPVKAGVETTTPSKQSNNKYAASSYLSLTPEQWKSHRSYSCQVTHEGSTVEKTVAPTECS
notes: copies: 2 + 2
By Kd is commonly meant the free concentration of one partner at which half of the binding sites on the other are occupied at equilibrium, for simple one-to-one binding. A low value points to higher affinity. By koff is commonly meant a measure of how fast the partners let go of each other. Low readings indicate slow dissociation, high ones fast dissociation. For orientation: kon means the second-order rate constant of association. Turning to B1, the binding result in experiment [1] is “no binding (tested: 10 ug/ml)”; in experiment [2], “no binding (tested: 10 ug/ml)”; in experiment [3], “no binding (tested: 10 ug/ml)”; in [4], “no binding (tested: 10 ug/ml)”; in [5] it was “no binding (tested: 10 ug/ml)”; in experiment [6], “no binding (tested: 300 nM)”. The binding result in [7], in [8], in [10] and in [11] was “no binding (tested: 300 nM)” throughout. Also, the Kd in experiment [9] amounted to 5.5 nM. The same molecule displayed a koff in [9] of 0.00096 s⁻¹. Moreover, the kon in [9] was 170000 M⁻¹ s⁻¹.

The values are drawn from patent publication US20200392227A1 (LYVGEN BIOPHARMA, published 2020).
